# Results from publication PMC5173035.
# Assays:
# [1] = target: M1.HpyAVI, DNA N6-adenine methyltransferase from Helicobacter pylori 26695 (Helicobacter pylori 26695); assay: SEC; Superdex 75 10/300 column on FPLC, 0.05, 0.1, 0.2, 0.5 mg/ml protein loaded; calibrated with gel filtration calibration kit LMW
# [2] = target: M1.HpyAVI, DNA N6-adenine methyltransferase from Helicobacter pylori 26695 (Helicobacter pylori 26695); assay: crystal structure; cofactor-free (3.0 Å, four monomers in the asymmetric unit) and AdoMet-bound (3.1 Å, eight monomers) crystals; dimer with the two monomers related by a two-fold axis; interface analysed with PDBePISA
substance,measurement,setting,value
"M1.HpyAVI, DNA N6-adenine methyltransferase from Helicobacter pylori 26695 (enzyme)",stoichiometry N,[1],2
same,stoichiometry N,[2],2
